Measured values published in patent US20110263827A1 (AbbVie / Abbott, published 2011).
“And” between values parts separate entries of the source, which are not always exact repeats. Equal values may be shown once.

T1: PLGF (UniProt P49763-2 21-149, limits assumed, biotinylated)
T1 construct: ELISA antigen; also called P1GF
T1 sequence (looked up): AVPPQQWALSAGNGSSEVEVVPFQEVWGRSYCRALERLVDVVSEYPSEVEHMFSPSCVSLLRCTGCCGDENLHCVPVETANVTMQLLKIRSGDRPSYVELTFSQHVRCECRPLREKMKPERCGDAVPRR

B1: DVD784 (bispecific antibody)
VH: QVQLQQSGAELVKPGASVKISCKASGYTFTDYYINWVKLAPGQGLEWIGWIYPGSGNTKYNEKFKGKATLTIDTSSSTAYMQLSSLTSEDTAVYFCVRDSPFFDYWGQGTLLTVSSASTKGPSVFPLAPQVQLQESGPGLVKPSQTLSLTCTVSGYSISSDFAWNWIRQPPGKGLEWMGYISYSGNTRYQPSLKSRITISRDTSKNQFFLKLNSVTAADTATYYCVTAGRGFPYWGQGTLVTVSS
VL: DIVLTQSPDSLAVSLGERVTMNCKSSQSLLNSGMRKSFLAWYQQKPGQSPKLLIYWASTRESGVPDRFTGSGSGTDFTLTISSVQAEDVAVYYCKQSYHLFTFGSGTKLEIKRTVAAPSVFIFPPDIQMTQSPSSMSVSVGDRVTITCHSSQDINSNIGWLQQKPGKSFKGLIYHGTNLDDGVPSRFSGSGSGTDYTLTISSLQPEDFATYYCVQYAQFPWTFGGGTKLEIKR
notes: DVD-Ig; HC L, LC L; variable parts only
B2: DVD814 (bispecific antibody)
VH: B1 VH
VL: DIVLTQSPDSLAVSLGERVTMNCKSSQSLLNSGMRKSFLAWYQQKPGQSPKLLIYWASTRESGVPDRFTGSGSGTDFTLTISSVQAEDVAVYYCKQSYHLFTFGSGTKLEIKRTVAAPDIQMTQSPSSMSVSVGDRVTITCHSSQDINSNIGWLQQKPGKSFKGLIYHGTNLDDGVPSRFSGSGSGTDYTLTISSLQPEDFATYYCVQYAQFPWTFGGGTKLEIKR
notes: DVD-Ig; HC L, LC S; variable parts only
B3: DVD844 (bispecific antibody)
VH: QVQLQQSGAELVKPGASVKISCKASGYTFTDYYINWVKLAPGQGLEWIGWIYPGSGNTKYNEKFKGKATLTIDTSSSTAYMQLSSLTSEDTAVYFCVRDSPFFDYWGQGTLLTVSSASTKGPQVQLQESGPGLVKPSQTLSLTCTVSGYSISSDFAWNWIRQPPGKGLEWMGYISYSGNTRYQPSLKSRITISRDTSKNQFFLKLNSVTAADTATYYCVTAGRGFPYWGQGTLVTVSS
VL: B1 VL
notes: DVD-Ig; HC S, LC L; variable parts only
B4: DVD342 (bispecific antibody)
VH: B3 VH
VL: B2 VL
notes: DVD-Ig; HC S, LC S; variable parts only
B5: DVD842 (bispecific antibody)
VH: EVQLVESGGGLVQPGGSLRLSCAASGFTFTDNWISWVRQAPGKGLEWVGYISPNSGFTYYADSVKGRFTISADTSKNTAYLQMNSLRAEDTAVYYCARDNFGGYFDYWGQGTLVTVSSASTKGPQVQLQESGPGLVKPSQTLSLTCTVSGYSISSDFAWNWIRQPPGKGLEWMGYISYSGNTRYQPSLKSRITISRDTSKNQFFLKLNSVTAADTATYYCVTAGRGFPYWGQGTLVTVSS
VL: DIQMTQSPSSLSASVGDRVTITCRASQDVSTAVAWYQQKPGKAPKLLIYSASFLYSGVPSRFSGSGSGTDFTLTISSLQPEDFATTYYCQQSYTGTVTFGQGTKVEIKRTVAAPSVFIFPPDIQMTQSPSSMSVSVGDRVTITCHSSQDINSNIGWLQQKPGKSFKGLIYHGTNLDDGVPSRFSGSGSGTDYTLTISSLQPEDFATYYCVQYAQFPWTFGGGTKLEIKR
notes: as for B3
B6: DVD340 (bispecific antibody)
VH: B5 VH
VL: DIQMTQSPSSLSASVGDRVTITCRASQDVSTAVAWYQQKPGKAPKLLIYSASFLYSGVPSRFSGSGSGTDFTLTISSLQPEDFATTYYCQQSYTGTVTFGQGTKVEIKRTVAAPDIQMTQSPSSMSVSVGDRVTITCHSSQDINSNIGWLQQKPGKSFKGLIYHGTNLDDGVPSRFSGSGSGTDYTLTISSLQPEDFATYYCVQYAQFPWTFGGGTKLEIKR
notes: as for B4
B7: DVD783 (bispecific antibody)
VH: QVQLQESGPGLVKPSQTLSLTCTVSGYSISSDFAWNWIRQPPGKGLEWMGYISYSGNTRYQPSLKSRITISRDTSKNQFFLKLNSVTAADTATYYCVTAGRGFPYWGQGTLVTVSSASTKGPSVFPLAPQVQLQQSGAELVKPGASVKISCKASGYTFTDYYINWVKLAPGQGLEWIGWIYPGSGNTKYNEKFKGKATLTIDTSSSTAYMQLSSLTSEDTAVYFCVRDSPFFDYWGQGTLLTVSS
VL: DIQMTQSPSSMSVSVGDRVTITCHSSQDINSNIGWLQQKPGKSFKGLIYHGTNLDDGVPSRFSGSGSGTDYTLTISSLQPEDFATYYCVQYAQFPWTFGGGTKLEIKRTVAAPSVFIFPPDIVLTQSPDSLAVSLGERVTMNCKSSQSLLNSGMRKSFLAWYQQKPGQSPKLLIYWASTRESGVPDRFTGSGSGTDFTLTISSVQAEDVAVYYCKQSYHLFTFGSGTKLEIKR
notes: as for B1
B8: DVD813 (bispecific antibody)
VH: B7 VH
VL: DIQMTQSPSSMSVSVGDRVTITCHSSQDINSNIGWLQQKPGKSFKGLIYHGTNLDDGVPSRFSGSGSGTDYTLTISSLQPEDFATYYCVQYAQFPWTFGGGTKLEIKRTVAAPDIVLTQSPDSLAVSLGERVTMNCKSSQSLLNSGMRKSFLAWYQQKPGQSPKLLIYWASTRESGVPDRFTGSGSGTDFTLTISSVQAEDVAVYYCKQSYHLFTFGSGTKLEIKR
notes: as for B2
B9: DVD843 (bispecific antibody)
VH: QVQLQESGPGLVKPSQTLSLTCTVSGYSISSDFAWNWIRQPPGKGLEWMGYISYSGNTRYQPSLKSRITISRDTSKNQFFLKLNSVTAADTATYYCVTAGRGFPYWGQGTLVTVSSASTKGPQVQLQQSGAELVKPGASVKISCKASGYTFTDYYINWVKLAPGQGLEWIGWIYPGSGNTKYNEKFKGKATLTIDTSSSTAYMQLSSLTSEDTAVYFCVRDSPFFDYWGQGTLLTVSS
VL: B7 VL
notes: as for B3
B10: DVD341 (bispecific antibody)
VH: B9 VH
VL: B8 VL
notes: as for B4
B11: AB005 (antibody, V domains shown)
VH: EVQLVQSGGGLVKPGGSLRLSCAASGFTFSSYAMHWVRQAPGKGLEWVAVISYDGSNKYYADSVKGRFTISRDNSKNTLYLQMNSLRAEDTAVYYCARFSGWPNNYYYYGMDVWGQGTTVTVSS
VL: DVVMTQSPLSLPVTPGEPASISCRSSQSLLHSNGFNYVDWYLQKPGQSPHLLIYFGSYRASGVPDRFSGSGSGTDFTLKISRVEAEDVGVYYCMQALQTPPWTFGQGTKVEIRR
notes: parent antibody; also called RON
B12: AB011 (antibody, V domains shown)
VH: EVQLLESGGGLVQPGGSLRLSCTASGFTFSSYAMNWVRQAPGKGLEWVSAISGSGGTTFYADSVKGRFTISRDNSRTTLYLQMNSLRAEDTAVYYCAKDLGWSDSYYYYYGMDVWGQGTTVTVSS
VL: DIQMTQFPSSLSASVGDRVTITCRASQGIRNDLGWYQQKPGKAPKRLIYAASRLHRGVPSRFSGSGSGTEFTLTISSLQPEDFATYYCLQHNSYPCSFGQGTKLEIKR
notes: parent antibody; also called IGF1R
B13: AB062 (antibody, V domains shown)
VH: QVQLQQWGAGLLKPSETLSLTCAVYGGSFSGYYWSWIRQPPGKGLEWIGEINHSGSTNYNPSLKSRVTISVETSKNQFSLKLSSVTAADTAVYYCARDKWTWYFDLWGRGTLVTVSS
VL: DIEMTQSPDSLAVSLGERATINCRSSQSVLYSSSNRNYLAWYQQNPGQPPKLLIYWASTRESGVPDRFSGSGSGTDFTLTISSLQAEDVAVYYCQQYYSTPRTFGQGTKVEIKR
notes: parent antibody
B14: AB063 (antibody, V domains shown)
VH: EVQLVESGGGLVQPGGSLRLSCAASGFTFSIYSMNWVRQAPGKGLEWVSYISSSSSTIYYADSVKGRFTISRDNAKNSLYLQMNSLRDEDTAVYYCARDRGDFDAFDIWGQGTMVTVSS
VL: DIQMTQSPSSLSASVGDRVTITCQASQDITNYLNWYQQKPGKAPKLLIYDASNLETGVPSRFSGSGSGTDFTFTISSLQPEDIATYNCQQCENFPITFGQGTRLEIKR
notes: parent antibody
B15: AB067 (antibody, V domains shown)
VH: EVQLLESGGGLVQPGGSLRLSCAASGFTFSHYVMAWVRQAPGKGLEWVSSISSSGGWTLYADSVKGRFTISRDNSKNTLYLQMNSLRAEDTAVYYCTRGLKMATIFDYWGQGTLVTVSS
VL: QSALTQPASVSGSPGQSITISCTGTSSDVGSYNVVSWYQQHPGKAPKLIIYEVSQRPSGVSNRFSGSKSGNTASLTISGLQTEDEADYYCCSYAGSSIFVIFGGGTKVTVLG
notes: parent antibody

What follows are binders tested against T1, PLGF (assay: direct bind ELISA, N-term VD;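 also: antibody or DVD-Ig preparations bound to immobilized target antigen on ELISA plates, 1 h at room temperature, TMB detection read as absorbance at 450 nm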).

Binder	EC50 [nM]
B1	0.26
B2	0.23
B3	0.23
B4	0.2

What follows are binders tested against T2, DLL-4 (UniProt Q9NR61 27-524, limits assumed, biotinylated) (assay: direct bind ELISA, N-term VD;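 also: antibody or DVD-Ig preparations bound to immobilized target antigen on ELISA plates, 1 h at room temperature, TMB detection read as absorbance at 450 nm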).
T2 construct: ELISA antigen

Binder	EC50 [nM]
B5	0.36
B6	0.32

What follows are binders tested against T3, EGFR (UniProt P00533 25-645, limits assumed, biotinylated) (assay: direct bind ELISA, N-term VD;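 also: antibody or DVD-Ig preparations bound to immobilized target antigen on ELISA plates, 1 h at room temperature, TMB detection read as absorbance at 450 nm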).
T3 construct: ELISA antigen; construct not described

Binder	EC50 [nM]
B7	3.88
B8	3.41
B9	3.65
B10	3.41

Each binder was assayed against RON (UniProt Q04912 25-571, biotinylated) (assay: direct bind ELISA, ref Ab).

Binder	EC50
B11	0.19 nM and 0.24 nM

The binders below were run against T4, IGF1R (UniProt P08069 31-932, limits assumed, biotinylated) (assay: direct bind ELISA, ref Ab).
T4 construct: ELISA antigen

Binder	EC50
B12	0.24 nM and 0.26 nM

What follows are binders tested against T5, ErbB3 (UniProt P21860 20-643, limits assumed, biotinylated) (assay: direct bind ELISA, ref Ab).
T5 construct: ELISA antigen

Binder	EC50
B13	1.19 nM and 1.36 nM and 1.34 nM
B14	0.86 nM and 1.11 nM
B15	1.4 nM and 2.03 nM

Each binder was assayed against T1, PLGF (assay: direct bind ELISA, C-term VD;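 also: ELISA with antibody or DVD-Ig preparations applied to target antigen-coated plates for 1 h at room temperature, TMB colour development, absorbance read at 450 nm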).

Binder	EC50 [nM]
B7	0.36
B8	0.44
B9	0.37
B10	0.74

Each binder was assayed against T3, EGFR (assay: direct bind ELISA, C-term VD;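 also: ELISA with antibody or DVD-Ig preparations applied to target antigen-coated plates for 1 h at room temperature, TMB colour development, absorbance read at 450 nm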).

Binder	EC50 [nM]
B1	41.4
B2	50.4
B5	51.7
B3	45.5
B6	189
B4	120
